Tests used:
Conditions in all cases: both partners purified
His6-Fbp1Δ2–12 = target: T1, His6-Fbp1Δ2–12 (yeast (S. cerevisiae), UniProt P09201 1-348, Δ2–12); test: pull-down; His6-Fbp1 (wild type or mutant) pulled down on Talon metal affinity resin; reactions with two or all three proteins; 6 μg each of His6-Fbp1 (1.6 μM), Hsp70 (0.9 μM) and GST-Fes1 (1.09 μM), with or without ATP, ADP or AMP (2.5 mM); 50 mM Tris-HCl pH 7.5, 150 mM NaCl, 2% glycerol, 5 mM MgCl2; 30 min at 4°C; washed with 5 mM imidazole, eluted with 250 mM imidazole; stained SDS-PAGE gels, bands quantified …
T1 construct: Fbp1, yeast gluconeogenic enzyme, lacking amino acid residues 2–12; the initiator methionine is counted as residue 1; source: E. coli expression, purified; not shown: His6, N-terminal, kept
T1 sequence (looked up): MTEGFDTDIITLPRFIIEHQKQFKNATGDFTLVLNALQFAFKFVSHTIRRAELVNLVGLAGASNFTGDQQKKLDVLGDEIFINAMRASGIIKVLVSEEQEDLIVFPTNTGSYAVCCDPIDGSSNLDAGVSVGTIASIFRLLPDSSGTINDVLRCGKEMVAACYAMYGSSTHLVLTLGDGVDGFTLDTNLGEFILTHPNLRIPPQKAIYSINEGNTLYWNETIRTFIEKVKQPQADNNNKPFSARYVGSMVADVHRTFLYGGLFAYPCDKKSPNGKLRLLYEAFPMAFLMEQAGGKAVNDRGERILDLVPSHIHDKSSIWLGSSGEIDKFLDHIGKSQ

His6-Fbp1ΔP2 = target: T2, His6-Fbp1ΔP2 (yeast (S. cerevisiae), UniProt P09201 1-348, ΔP2); test: as above
T2 construct: Fbp1, yeast gluconeogenic enzyme, proline 2 deleted; the initiator methionine is counted as residue 1; also called Fbp1P2Δ; source: E. coli expression, purified; not shown: His6, N-terminal, kept
T2 sequence (looked up): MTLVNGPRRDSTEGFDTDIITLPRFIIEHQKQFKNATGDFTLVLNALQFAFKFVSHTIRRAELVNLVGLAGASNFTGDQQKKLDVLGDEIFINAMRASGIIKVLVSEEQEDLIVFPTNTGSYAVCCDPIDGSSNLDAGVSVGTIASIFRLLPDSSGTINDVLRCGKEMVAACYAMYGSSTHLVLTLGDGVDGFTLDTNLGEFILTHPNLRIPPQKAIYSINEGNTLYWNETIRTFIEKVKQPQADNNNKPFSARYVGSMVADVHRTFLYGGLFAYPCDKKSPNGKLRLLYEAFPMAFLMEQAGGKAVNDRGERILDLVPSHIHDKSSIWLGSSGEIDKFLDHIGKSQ

His6-Fbp1 = target: T3, His6-Fbp1 (yeast (S. cerevisiae), UniProt P09201 1-348); test: as above
T3 construct: Fbp1, yeast gluconeogenic enzyme; the initiator methionine is present in the purified protein and is counted as residue 1; also called wild type His6-Fbp1; not shown: His6, N-terminal, kept
T3 sequence (looked up): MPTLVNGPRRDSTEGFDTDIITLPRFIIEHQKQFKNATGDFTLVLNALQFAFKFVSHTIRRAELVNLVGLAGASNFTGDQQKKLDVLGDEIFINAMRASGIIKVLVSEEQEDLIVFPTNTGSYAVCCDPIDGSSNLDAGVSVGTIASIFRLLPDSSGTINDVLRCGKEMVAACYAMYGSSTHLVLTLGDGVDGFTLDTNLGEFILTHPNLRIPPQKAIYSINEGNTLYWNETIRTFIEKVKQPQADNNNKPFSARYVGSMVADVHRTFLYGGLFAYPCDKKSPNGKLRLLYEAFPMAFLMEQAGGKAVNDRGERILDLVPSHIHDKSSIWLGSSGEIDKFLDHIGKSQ

Ssa2 = target: T4, Ssa2 (yeast (S. cerevisiae), UniProt P10592 1-639); test: pull-down; GST-Fes1 (wild type or mutant, or GST alone) pulled down on glutathione resin; reactions with two or all three proteins; 6 μg each of His6-Fbp1 (1.6 μM), Hsp70 (0.9 μM) and GST-Fes1 (1.09 μM), with or without ATP, ADP or AMP (2.5 mM); 50 mM Tris-HCl pH 7.5, 150 mM NaCl, 2% glycerol, 5 mM MgCl2; 30 min at 4°C; stained SDS-PAGE gels
T4 construct: Ssa2, yeast cytosolic Hsp70; non-tagged; also called Hsp70; source: E. coli Rosetta 2(DE3), purified as described [51]
T4 sequence (P10592 whole entry): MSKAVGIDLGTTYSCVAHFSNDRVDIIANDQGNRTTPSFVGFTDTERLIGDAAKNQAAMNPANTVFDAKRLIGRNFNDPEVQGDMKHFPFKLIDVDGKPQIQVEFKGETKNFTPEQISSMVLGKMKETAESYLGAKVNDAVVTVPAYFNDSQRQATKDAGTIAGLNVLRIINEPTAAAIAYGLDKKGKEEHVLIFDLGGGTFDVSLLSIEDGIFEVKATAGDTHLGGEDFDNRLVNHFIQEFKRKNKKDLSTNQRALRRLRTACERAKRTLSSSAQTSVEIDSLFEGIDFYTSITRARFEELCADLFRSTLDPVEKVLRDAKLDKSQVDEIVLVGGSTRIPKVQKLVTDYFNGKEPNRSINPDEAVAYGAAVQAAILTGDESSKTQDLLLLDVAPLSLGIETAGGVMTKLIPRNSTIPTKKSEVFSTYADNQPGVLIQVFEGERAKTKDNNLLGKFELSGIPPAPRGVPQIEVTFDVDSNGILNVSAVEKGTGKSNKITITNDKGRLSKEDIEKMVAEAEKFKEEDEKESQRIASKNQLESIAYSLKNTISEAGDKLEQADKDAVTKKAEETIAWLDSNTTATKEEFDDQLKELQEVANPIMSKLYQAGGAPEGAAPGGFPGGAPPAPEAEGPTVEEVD

Ssa1 = target: T5, Ssa1 (yeast (S. cerevisiae), UniProt P10591 1-642); test: as above
T5 construct: Ssa1, yeast cytosolic Hsp70; non-tagged; also called Hsp70; source: E. coli Rosetta 2(DE3), purified as described [51]
T5 sequence (P10591 whole entry): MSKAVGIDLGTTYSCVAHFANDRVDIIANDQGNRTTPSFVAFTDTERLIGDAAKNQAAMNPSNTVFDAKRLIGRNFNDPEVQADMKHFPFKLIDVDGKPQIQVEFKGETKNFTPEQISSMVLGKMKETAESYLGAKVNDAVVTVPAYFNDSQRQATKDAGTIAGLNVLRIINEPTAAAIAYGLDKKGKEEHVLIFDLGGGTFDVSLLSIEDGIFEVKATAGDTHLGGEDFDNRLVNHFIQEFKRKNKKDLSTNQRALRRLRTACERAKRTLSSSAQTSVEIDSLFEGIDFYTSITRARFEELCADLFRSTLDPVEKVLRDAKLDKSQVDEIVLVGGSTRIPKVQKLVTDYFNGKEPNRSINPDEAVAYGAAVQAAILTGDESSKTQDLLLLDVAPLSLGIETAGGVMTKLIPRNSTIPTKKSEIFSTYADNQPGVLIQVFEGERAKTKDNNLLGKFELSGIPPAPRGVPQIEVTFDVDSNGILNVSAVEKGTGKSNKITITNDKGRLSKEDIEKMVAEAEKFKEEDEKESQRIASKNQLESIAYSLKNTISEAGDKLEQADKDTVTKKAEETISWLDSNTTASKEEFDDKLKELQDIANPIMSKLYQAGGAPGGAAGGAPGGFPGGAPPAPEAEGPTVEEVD

B1: GST-Fes1 (natural protein, yeast (S. cerevisiae), UniProt P38260 1-290, looked up)
chain: MEKLLQWSIANSQGDKEAMARAGQPDPKLLQQLFGGGGPDDPTLMKESMAVIMNPEVDLETKLVAFDNFEMLIENLDNANNIENLKLWEPLLDVLVQTKDEELRAAALSIIGTAVQNNLDSQNNFMKYDNGLRSLIEIASDKTKPLDVRTKAFYALSNLIRNHKDISEKFFKLNGLDCIAPVLSDNTAKPKLKMRAIALLTAYLSSVKIDENIISVLRKDGVIESTIECLSDESNLNIIDRVLSFLSHLISSGIKFNEQELHKLNEGYKHIEPLKDRLNEDDYLAVKYVL
notes: Fes1, yeast Hsp70 nucleotide exchange factor; also called wild type GST-Fes1; source: E. coli expression, purified as described [15]; not shown: GST, N-terminal, kept
binding result (His6-Fbp1Δ2–12): binds | binding result (His6-Fbp1ΔP2): binds | ratio of amounts Fes1/Ssa1 pulled down by Fbp1, no nucleotide (His6-Fbp1): 0.23 | ratio of amounts Fes1/Ssa1 pulled down by Fbp1, with ADP (His6-Fbp1): 0.5 | ratio of amounts Fes1/Ssa1 pulled down by Fbp1, with AMP (His6-Fbp1): 0.18 | ratio of amounts Fes1/Ssa1 pulled down by Fbp1, with ATP (His6-Fbp1): 0.58 | ratio of amounts Fes1/Ssa2 pulled down by Fbp1, no nucleotide (His6-Fbp1): 0.33 | ratio of amounts Fes1/Ssa2 pulled down by Fbp1, with ADP (His6-Fbp1): 0.67 | ratio of amounts Fes1/Ssa2 pulled down by Fbp1, with AMP (His6-Fbp1): 0.32 | ratio of amounts Fes1/Ssa2 pulled down by Fbp1, with ATP (His6-Fbp1): 0.79 | binding result (Ssa2): binds | binding result (Ssa1): binds
